In article PMC9402891, “Case report: Biochemical and clinical phenotypes caused by cysteine substitutions in the epidermal growth factor-like domains of fibrillin-1” (Frontiers in Genetics, 2022):

T1: latent transforming growth factor beta-binding protein 1 fragment LTBP1^1141-1395 (LTBP1^cbEGF14cbEGF15) (human, UniProt Q14766-2 1141-1395)
T1 construct: LTBP1, residues 1141-1395: cbEGF14, TB3, EGF3 and cbEGF15 domains (the C-terminal region); the domains named are the C-terminal ones, which fits the short isoform; also called LTBP1 polypeptides
T1 sequence (looked up): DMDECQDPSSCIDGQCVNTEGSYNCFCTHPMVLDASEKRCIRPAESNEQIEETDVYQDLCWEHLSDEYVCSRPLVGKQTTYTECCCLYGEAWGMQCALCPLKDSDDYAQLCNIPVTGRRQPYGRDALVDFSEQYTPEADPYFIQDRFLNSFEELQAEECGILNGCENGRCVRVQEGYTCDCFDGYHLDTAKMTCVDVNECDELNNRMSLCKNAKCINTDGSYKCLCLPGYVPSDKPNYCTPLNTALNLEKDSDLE


Molecular target: T1, latent transforming growth factor …
Test: SPR; immobilised partner not stated; running buffer 10 mM HEPES, 150 mM NaCl, 2 mM CaCl2, pH 7.4, 0.005% (v/v) Tween-20; regeneration 50 mM HCl; Biacore T200 (ProteOn system also named)
Conditions: both partners purified

Kd [nM] | Binder
1230 | human fibrillin-1 fragment FBN1^113-287+C160Y (FBN1^E2cbEGF1+C160Y) (domain or fragment, fibrillin-1, human, residues 113-287 (EGF2, EGF3, Hyb1 and cbEGF1 domains) with the patient mutation C160Y (c.479G>A) in EGF3; also called mutant recombinant fibrillin-1 polypeptides) not shown
1530 | human fibrillin-1 fragment FBN1^113-287 (FBN1^E2cbEGF1), wild type (domain or fragment, fibrillin-1, human, residues 113-287: EGF2, EGF3, Hyb1 and cbEGF1 domains; one of them ends in L288, which may be a residue from the vector; also called wild-type fibrillin-1 polypeptides) not shown
